Measurements published in the DeepSol protein solubility set.

assay: soluble on expression in E. coli; label from the status in PepcDB or PDB records

Sequence | soluble on expression in E. coli
MGSDKIHHHHHHMKVIKFGGSSLASSQQLQKVLAIVEADQKRKYVIVSAPGKRFDGDTKVTDLLIQYARQTIHHQDTQAVTAAIIDRYAEIGHGFNVPEAQLTPIFETIRNLPKQSYADNTYLMAAFKAHGERLNAQLVAAVFQQSGLNARYLDPKDAGMVVTDVPDDAQIIKSSYDQLAKWANSEQILVIPGFFAYNRNGQICTFSRGGSDITGAIIARGVHAERYENFTDVDAIYAVNPSLVAKPAAISEMTFTEMRELSYAGFSVFHDEALIPAIEDNITVNVKNTNHPEAPGTLIQSTREPNPHYPVTGIASSSSFCSLYLRKYLLNKEVGLGRKILTILENHHISYEHMPSGIDDLTIIFDEHQLTPELEKTLVAEISTAINPDEIYFTHDYSILMLVGENMRNRVGIMSRAATALANDNIKLIMVNQGASEISIMFGVHDNDADQAVIALYKEFFD | not soluble
MGSDKIHHHHHHMEKFDVIVVGGGPAGLSAAISAAQAGMKTAVIERGDYPGTKNVMGGVLYTEATNEVVPDFWKEAPLERPVIEQRYAFLSKDEILSAGYRDPAWGQPPYNAHTVLRVKFDRWLADQAVKAGVMIITETLVEDLLYHGDDVVGVRTGRAEGDLGAQVVILAEGANNFLACKAGLAKPLRPENMAVVVKEIIELPPEKIEDRFCLEPHEGATIELFGDSTDGMMGTSFIYTNKNSLSIGVGAMVHSMSEKGWSPNDLLENLKAKPYVKRLLQGGETKEYLAHLIPEGGYNAIPKLYRQGVMVVGDTAMFVNGLNREGSNLAMISGKIAGKVAAEAIQSGDLSAHGMSVYESRLRDSFVIKDLYKFRKLMPFIESNPHLLGQYPEILNQAARMYFTADGTPKAQVFSNIMDMMFKKRTKTGLVKDMFNAWRALK | not soluble
MEASLYSRVGDKVVCQLCWRFCKLGDGEEGHCRVRRNEGGKIFTTTYGKLSHLESRPIEIKPFFHFLPGSTSMTFSTYSCNFDCPWCQNWSISKATPPEALRETSPEEVVDLALIMGDKSTCASLNEPTLLYEYLLDVFRLAREKGLKNTMVSNGYMSILALKNLKNAGLDAINIDVKGDERVYRDYCNAEVEYVWRVIEKATKLGIHVEVVCLLVSNVVDEEVVREIVREHLRRAGSSIPIHFTRYFPAYRFTAPPTRIEFLEWAVKHAYKEGAEFAYIGNVPGHRFENTHCPDCGELLIRRYSFSTVDNRIRSGCCPKCGREIYGVWV | not soluble
LPNITILATGGTIAGGGDSATKSNYTVGKVGVENLVNAVPQLKDIANVKGEQVVNIGSQDMNDNVWLTLAKKINTDCDKTDGFVITHGTETMEETAYFLDLTVKCDKPVVMVGAMRPSTSMSADGPFNLYNAVVTAADKASANRGVLVVMNDTVLDGRDVTKTNTTDVATFKSVNYGPLGYIHNGKIDYQRTPARKHTSDTPFDVSKLNELPKVGIVYNYANASDLPAKALVDAGYDGIVSAGVGNGNLYKSVFDTLATAAKTGTAVVRSSRVPTGATTQDAEVDDAKYGFVASGTLNPQKARVLLQLALTQTKDPQQIQQIFNQY | soluble
MAQEIERKFLVSGDFKSFAFAQSRIMQGYICSARGRTVRVRIRDDKGYLTIKGASNESGTSRYEWEKELPLSEAEELMKLCEPGMIDKTRYLVRSGNHIFEVDEFYGENEGLIVAEVELGTEDEAFVKPGFIGEEVTGDVRYYNSHLMKKPYKMW | not soluble
MEDKIGTTLTTRTVTGSLTPFIPIQDGDQLLVNGRSQDLYGWIYITELLDVINVYPLSLNNNSIVNFQPGTNIFFQLESSSYSSMRVPVARNVAIGKTTTLKGYVGLPDNAGIKFFDDSSIKK | not soluble
MNHAQLRRVTAESFAHYRHGLAQLLFETVHGGASVGFMADLDMQQAYAWCDGLKADIAAGSLLLWVVAEDDNVLASAQLSLCQKPNGLNRAEVQKLMVLPSARGRGLGRQLMDEVEQVAVKHKRGLLHLDTEAGSVAEAFYSALAYTRVGELPGYCATPDGRLHPTAIYFKTLGQPT | soluble
MYKNILLGVDTQLKNEKALKEVSKLAGEGTVVTVLNAISEQDAQASIKAGVHLNKLTEERSKRLEKTRKALEDYGIDYDQIIVRGNAKEELLKHANSGKYEIVVLSNRKAEDKKKFVLGSVSHKVAKRATIPVLIVK | not soluble
MGSDKIHHHHHHMDAPYVSMWTSCSGGCSNNMYQLPANYPMKEKRDNEAEHTEGRLSKNERIERQLNSLYDFRFNIVKSRTEYRAANTSGLYQPVTKFALNSFRRKLDVTAGITTSAENIRMILESDFANKVHPIREYLTALPLLNPAGHGYIKKLLNTVQVANPGEWEEYFTKWLVGVVANAMNDTGCQNHTCLVLTGDNQGQFKTWWLDNLCPSSLKNYLFTGKIDPQSKDILTLIAEYLFINIDDQLKELNKQNENALKNLITTPAVKYRRPYDIYIEEYPHLASFMASVNGNEFLTDPTGNRRFLPFEVLHIDKPTAESINMDNVYSEIMYLYRQGVRYWFNDAEIEELHLTNAEFEVQTVEFEMLMQYFEKPTEEEESLFFMTTAQILTCLRDVCPMQLSEKRLGEALRKAGFKRVQKRISNCNYSVYGYRIKPVSIPYTDNDYG | not soluble
MGSDKIHHHHHHMIDLSLLPPPDVVESVDFEELYQETLGIFREFMKDQWTAALESDPVVKLMEVMAYREMLTRARVNAAAKASLLAFAKGNDLVNRAADYGVEKLVIRPADPDAVPPVEAVMEGDEALRYRTRLSLEALSVAGSSGAYEYHGLSASAELTNVSVDSPRFVEAELTPEVRAQLPAGAIVVVCDYDAGLANPLPGDVSLAILPSLSSTTPVAQLVAKVKAALSAEEVRPITDRPRVAAGVPTEFKVEAELQIEEGPDPDVVKATARAGLNAAIAEARRLQGQLPLSAIYAALHVTGIRSVTLKHPAAGVVCDKRHYPSCTSVTLTSKVVT | not soluble
MPPANGKKGKKGGAAKAAAPEEDFDAILAEMQLADAKTAAKEATKKDAKGGKGKANGSAAATAAPEEAKQAWQAEIAAMKPIDEQFPDGKFPHGIDESPYYLKGKDGRVATDRESNEEKKALDISYEEVWQDYRRSAEAHRQVRKYVKSWIKPGMTMIEICERLETTSRRLIKEQGLEAGLAFPTGCSLNHCAAHYTPNAGDTTVLQYGDVCKIDYGIHVRGRLIDSAFTVHFDPKFDPLVEAVREATNAGIKESGIDVRLCDVGEIVEEVMTSHEVELDGKSYVVKPIRNLNGHSIAQYRIHAGKTVPIVKGGEQTKMEENEIYAIETFGSTGKGYVHDDMETSHYMKNFELADEKIPLRLQKSKGLLNLIDKNFATLAFCRRWIDRLGETKYLMALKDLCDKGIVDPYPPLCDVKGCYTAQWEHTILMRPTVKEVVSRGDDY | not soluble
MGSDKIHHHHHHMNVVVQKYGGSSVATPERIKNVAQRIKKKVDEGYKVVVVVSAMGKTTDNLIKLAKEISPRPDSRELDMLLATGEQVSAALLSMALKDLGVKAKSLNAFQVKIKTTPHHTSARIVDIDDSVIRENLKDYDVLVVTGFQGVNEHGDLTTLGRGGSDTSAVALAAKLRVPCEIYSDVDGIYTCDPRVHPRAKKLAYITYDEALELTALGAKVLHSRSVEIAKKYGIPIYCASSFTEEEGTMVVERLPEWLEEPVVTGATISHGQIKVSISFLPKDVKYITAIFEEVGKRALNVDMISLVPSNGKVFLSFTILEDHKEDLDEALKEALRDVEGWKSTYEGGFAKLSIVGVGMRTSPGVAARFFEALERAGVTPELVTTSEIKISCLVPEEKAEEALKSVIEEFEL | not soluble
NFCVYMCPYSRVQSVLYDNDTIMTVYDYERGGKVFDPKGIKLWKKPETPNAECTGCELCVKVCPTHIDIRKGMQLECINCLECADAC | not soluble
MTAHRSVLLVVHTGRDEATETARRVEKVLGDNKIALRVLSAEAVDRGSLHLAPDDMRAMGVEIEVVDADQHAADGCELVLVLGGDGTFLRAAELARNASIPVLGVNLGRIGFLAEAEAEAIDAVLEHVVAQDYRVEDRLTLDVVVRQGGRIVNRGWALNEVSLEKGPRLGVLGVVVEIDGRPVSAFGCDGVLVSTPTGSTAYAFSAGGPVLWPDLEAILVVPNNAHALFGRPMVTSPEATIAIEIEADGHDALVFCDGRREMLIPAGSRLEVTRCVTSVKWARLDSAPFTDRLVRKFRLPVIGWRGK | soluble
ELNNLRMTYERLRELSLNLGNRMVPPVGNFMPDSILKKMAAILPMNDSAFATLGTVEDKYRRRFKYFKATIADLSKKRSSE | soluble
